# Laboratory results as given in IntAct's records for PubMed 31515488.
# B1: Notch homolog 2 N-terminal-like protein A (Homo sapiens), Q7Z3S9 (parent)
# chain: MCVTYHNGTGYCKCPEGFLGEYCQHRDPCEKNRCQNGGTCVAQAMLGKATCRCASGFTGEDCQYSTSHPCFVSRPCLNGGTCHMLSRDTYECTCQVGFTGKECQWTDACLSHPCANGSTCTTVANQFSCKCLTGFTGQKCETDVNECDIPGHCQHGGTCLNLPGSYQCQCLQGFTGQYCDSLYVPCAPSPCVNGGTCRQTGDFTFECNCLPETVRRGTELWERDREVWNGKEHDEN
# partner: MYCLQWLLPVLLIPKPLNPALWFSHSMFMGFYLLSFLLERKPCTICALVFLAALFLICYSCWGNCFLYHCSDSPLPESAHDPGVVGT
# B2: Notch homolog 2 N-terminal-like protein A (Homo sapiens), Q7Z3S9 (parent)
# chain: B1 chain
# partner: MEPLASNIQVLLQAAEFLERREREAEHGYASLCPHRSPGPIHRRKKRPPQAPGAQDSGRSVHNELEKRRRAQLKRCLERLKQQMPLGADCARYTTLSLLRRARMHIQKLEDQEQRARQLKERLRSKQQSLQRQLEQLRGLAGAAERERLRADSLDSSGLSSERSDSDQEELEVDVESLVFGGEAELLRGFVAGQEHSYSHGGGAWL
# B3: Calcium-binding and coiled-coil domain-containing protein 2 (Homo sapiens), Q13137 (parent)
# chain: MEETIKDPPTSAVLLDHCHFSQVIFNSVEKFYIPGGDVTCHYTFTQHFIPRRKDWIGIFRVGWKTTREYYTFMWVTLPIDLNNKSAKQQEVQFKAYYLPKDDEYYQFCYVDEDGVVRGASIPFQFRPENEEDILVVTTQGEVEEIEQHNKELCKENQELKDSCISLQKQNSDMQAELQKKQEELETLQSINKKLELKVKEQKDYWETELLQLKEQNQKMSSENEKMGIRVDQLQAQLSTQEKEMEKLVQGDQDKTEQLEQLKKENDHLFLSLTEQRKDQKKLEQTVEQMKQNETTAMKKQQELMDENFDLSKRLSENEIICNALQRQKERLEGENDLLKRENSRLLSYMGLDFNSLPYQVPTSDEGGARQNPGLAYGNPYSGIQESSSPSPLSIKKCPICKADDICDHTLEQQQMQPLCFNCPICDKIFPATEKQIFEDHVFCHSL
# partner: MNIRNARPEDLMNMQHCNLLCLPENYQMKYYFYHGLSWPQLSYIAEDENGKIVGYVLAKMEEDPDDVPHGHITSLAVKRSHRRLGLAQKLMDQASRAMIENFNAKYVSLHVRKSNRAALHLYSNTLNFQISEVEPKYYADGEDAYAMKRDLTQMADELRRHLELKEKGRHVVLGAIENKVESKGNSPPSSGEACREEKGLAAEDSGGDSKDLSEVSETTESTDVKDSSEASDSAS
# B4: Protein LDOC1 (Homo sapiens), O95751 (parent)
# chain: MVDELVLLLHALLMRHRALSIENSQLMEQLRLLVCERASLLRQVRPPSCPVPFPETFNGESSRLPEFIVQTASYMLVNENRFCNDAMKVAFLISLLTGEAEEWVVPYIEMDSPILGDYRAFLDEMKQCFGWDDDEDDDDEEEEDDY
# partner: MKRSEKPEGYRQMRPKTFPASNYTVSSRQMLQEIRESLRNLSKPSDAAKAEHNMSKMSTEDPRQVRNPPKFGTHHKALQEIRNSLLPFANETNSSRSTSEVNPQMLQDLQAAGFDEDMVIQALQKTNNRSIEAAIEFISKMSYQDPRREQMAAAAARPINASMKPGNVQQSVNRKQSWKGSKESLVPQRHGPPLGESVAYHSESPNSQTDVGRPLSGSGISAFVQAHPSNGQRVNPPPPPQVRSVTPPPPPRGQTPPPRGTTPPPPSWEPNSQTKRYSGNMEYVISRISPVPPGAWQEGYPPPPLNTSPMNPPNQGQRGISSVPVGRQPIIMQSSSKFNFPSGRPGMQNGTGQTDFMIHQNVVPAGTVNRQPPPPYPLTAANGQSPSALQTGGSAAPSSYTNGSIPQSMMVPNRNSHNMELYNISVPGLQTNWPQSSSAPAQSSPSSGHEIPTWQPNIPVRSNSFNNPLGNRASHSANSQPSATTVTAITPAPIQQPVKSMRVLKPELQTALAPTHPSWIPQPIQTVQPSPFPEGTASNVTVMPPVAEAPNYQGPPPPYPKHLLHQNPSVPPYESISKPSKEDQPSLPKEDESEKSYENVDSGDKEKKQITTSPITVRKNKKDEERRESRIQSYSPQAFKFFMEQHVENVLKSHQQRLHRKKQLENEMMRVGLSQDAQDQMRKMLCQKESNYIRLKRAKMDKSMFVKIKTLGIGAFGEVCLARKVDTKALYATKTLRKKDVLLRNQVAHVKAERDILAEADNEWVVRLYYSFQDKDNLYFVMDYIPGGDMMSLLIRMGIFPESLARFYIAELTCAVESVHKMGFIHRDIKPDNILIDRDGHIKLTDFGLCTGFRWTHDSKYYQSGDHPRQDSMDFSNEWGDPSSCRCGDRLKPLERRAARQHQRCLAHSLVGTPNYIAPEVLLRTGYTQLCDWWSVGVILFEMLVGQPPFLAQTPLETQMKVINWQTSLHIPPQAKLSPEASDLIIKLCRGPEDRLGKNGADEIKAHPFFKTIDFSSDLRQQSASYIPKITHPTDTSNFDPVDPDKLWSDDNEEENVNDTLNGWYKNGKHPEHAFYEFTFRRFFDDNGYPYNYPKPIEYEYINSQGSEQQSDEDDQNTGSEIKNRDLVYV
# B5: Glycodelin (Homo sapiens), P09466 (parent)
# chain: MLCLLLTLGVALVCGVPAMDIPQTKQDLELPKLAGTWHSMAMATNNISLMATLKAPLRVHITSLLPTPEDNLEIVLHRWENNSCVEKKVLGEKTENPKKFKINYTVANEATLLDTDYDNFLFLCLQDTTTPIQSMMCQYLARVLVEDDEIMQGFIRAFRPLPRHLWYLLDLKQMEEPCRF
# partner: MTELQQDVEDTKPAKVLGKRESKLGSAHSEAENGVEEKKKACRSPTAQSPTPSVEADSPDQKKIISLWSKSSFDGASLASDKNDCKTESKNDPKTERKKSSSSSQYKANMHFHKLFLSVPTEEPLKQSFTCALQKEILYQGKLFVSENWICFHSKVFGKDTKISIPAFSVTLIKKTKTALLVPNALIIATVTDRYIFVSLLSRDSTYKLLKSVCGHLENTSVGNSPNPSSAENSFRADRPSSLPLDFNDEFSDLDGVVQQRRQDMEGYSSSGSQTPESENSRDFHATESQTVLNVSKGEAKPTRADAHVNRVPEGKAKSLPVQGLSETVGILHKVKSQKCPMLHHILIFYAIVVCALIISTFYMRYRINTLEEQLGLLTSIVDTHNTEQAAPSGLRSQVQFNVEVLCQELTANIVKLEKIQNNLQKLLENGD
# B6: Cyclin-D1-binding protein 1 (Homo sapiens), O95273 (parent)
# chain: MASATAPAAAVPTLASPLEQLRHLAEELRLLLPRVRVGEAQETTEEFNREMFWRRLNEAAVTVSREATTLTIVFSQLPLPSPQETQKFCEQVHAAIKAFIAVYYLLPKDQGITLRKLVRGATLDIVDGMAQLMEVLSVTPTQSPENNDLISYNSVWVACQQMPQIPRDNKAAALLMLTKNVDFVKDAHEEMEQAVEECDPYSGLLNDTEENNSDNHNHEDDVLGFPSNQDLYWSEDDQELIIPCLALVRASKACLKKIRMLVAENGKKDQVAQLDDIVDISDEISPSVDDLALSIYPPMCHLTVRINSAKLVSVLKKALEITKASHVTPQPEDSWIPLLINAIDHCMNRIKELTQSELEL
# partner: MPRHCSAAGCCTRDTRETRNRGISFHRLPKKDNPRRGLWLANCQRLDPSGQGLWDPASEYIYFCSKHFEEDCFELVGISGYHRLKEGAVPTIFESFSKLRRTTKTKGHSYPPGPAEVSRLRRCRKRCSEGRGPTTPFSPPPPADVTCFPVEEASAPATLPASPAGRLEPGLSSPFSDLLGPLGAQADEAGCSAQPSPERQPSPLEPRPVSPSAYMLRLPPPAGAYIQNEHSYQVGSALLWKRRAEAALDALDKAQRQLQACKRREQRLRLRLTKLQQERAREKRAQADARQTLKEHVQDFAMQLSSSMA
# B7: Breast cancer metastasis-suppressor 1 (Homo sapiens), Q9HCU9 (parent)
# chain: MPVQPPSKDTEEMEAEGDSAAEMNGEEEESEEERSGSQTESEEESSEMDDEDYERRRSECVSEMLDLEKQFSELKEKLFRERLSQLRLRLEEVGAERAPEYTEPLGGLQRSLKIRIQVAGIYKGFCLDVIRNKYECELQGAKQHLESEKLLLYDTLQGELQERIQRLEEDRQSLDLSSEWWDDKLHARGSSRSWDSLPPSKRKKAPLVSGPYIVYMLQEIDILEDWTAIKKARAAVSPQKRKSDGP
# partner: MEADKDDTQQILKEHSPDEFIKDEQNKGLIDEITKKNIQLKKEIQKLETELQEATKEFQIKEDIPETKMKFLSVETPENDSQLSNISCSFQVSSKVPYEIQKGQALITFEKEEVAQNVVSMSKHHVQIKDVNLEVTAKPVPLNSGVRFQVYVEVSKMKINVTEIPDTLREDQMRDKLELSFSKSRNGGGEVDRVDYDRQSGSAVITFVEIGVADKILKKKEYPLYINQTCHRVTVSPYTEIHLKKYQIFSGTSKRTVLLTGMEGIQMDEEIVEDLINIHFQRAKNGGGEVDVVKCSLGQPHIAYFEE
# B8: Filamin-binding LIM protein 1 (Homo sapiens), Q8WUP2 (parent)
# chain: MASKPEKRVASSVFITLAPPRRDVAVAEEVRQAVCEARRGRPWEAPAPMKTPEAGLAGRPSPWTTPGRAAATVPAAPMQLFNGGCPPPPPVLDGEDVLPDLDLLPPPPPPPPVLLPSEEEAPAPMGASLIADLEQLHLSPPPPPPQAPAEGPSVQPGPLRPMEEELPPPPAEPVEKGASTDICAFCHKTVSPRELAVEAMKRQYHAQCFTCRTCRRQLAGQSFYQKDGRPLCEPCYQDTLERCGKCGEVVRDHIIRALGQAFHPSCFTCVTCARCIGDESFALGSQNEVYCLDDFYRKFAPVCSICENPIIPRDGKDAFKIECMGRNFHENCYRCEDCRILLSVEPTDQGCYPLNNHLFCKPCHVKRSAAGCC
# partner: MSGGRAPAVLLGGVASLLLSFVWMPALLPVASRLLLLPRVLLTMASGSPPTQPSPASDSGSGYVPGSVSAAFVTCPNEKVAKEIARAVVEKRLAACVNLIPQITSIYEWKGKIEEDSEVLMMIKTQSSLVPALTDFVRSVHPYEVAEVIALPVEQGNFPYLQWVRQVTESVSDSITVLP
# Variants of: B1
# Conditions: with blcap_human BLCAP
row,effect of a mutation on the interaction,Variant
1,with no effect,A115T

# Variants of: B2
# Conditions: with mad3_human MXD3, Q9BW11
row,effect of a mutation on the interaction,Variant
1,with no effect,A115T
2,with no effect,R74Q

# Variants of: B3
# Conditions: with naa10_human NAA10, P41227
row,effect of a mutation on the interaction,Variant
1,with no effect,T273A
2,with no effect,P389A
3,with no effect,E222K

# Variants of: B4
# Conditions: with lats1_human LATS1, O95835
row,effect of a mutation on the interaction,Variant
1,disrupting interaction strength,L12H

# Variants of: B5
# Conditions: with grm2b_human GRAMD2B
row,effect of a mutation on the interaction,Variant
1,with no effect,Q126K

# Variants of: B6
# Conditions: with thap7_human THAP7, Q9BT49
row,effect of a mutation on the interaction,Variant
1,disrupting interaction strength,I277T

# Variants of: B7
# Conditions: with nmi_human NMI
row,effect of a mutation on the interaction,Variant
1,with no effect,S7G

# Variants of: B8
# Conditions: with cuta_human CUTA
row,effect of a mutation on the interaction,Variant
1,disrupting interaction strength,Y204C
